The assay deals with microtubules (tubulin purified from bovine brain) (bovine) (UniProt Q6B856). The assay can be described thus: co-sedimentation.
Sequence of microtubules (tubulin purified from bovine brain) (bovine) (Q6B856 whole entry, looked up): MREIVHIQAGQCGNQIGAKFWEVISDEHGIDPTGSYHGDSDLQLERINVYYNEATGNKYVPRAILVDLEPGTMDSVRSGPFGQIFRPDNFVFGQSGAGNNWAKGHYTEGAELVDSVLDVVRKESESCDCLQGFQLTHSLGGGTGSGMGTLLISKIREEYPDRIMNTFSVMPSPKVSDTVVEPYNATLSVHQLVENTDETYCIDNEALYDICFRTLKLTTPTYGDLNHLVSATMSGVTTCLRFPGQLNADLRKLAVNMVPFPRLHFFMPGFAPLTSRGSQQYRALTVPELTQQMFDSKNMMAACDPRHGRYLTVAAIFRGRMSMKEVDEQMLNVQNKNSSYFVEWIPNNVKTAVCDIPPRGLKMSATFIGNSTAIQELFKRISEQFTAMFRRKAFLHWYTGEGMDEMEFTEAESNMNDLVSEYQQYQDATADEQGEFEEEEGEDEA

In turn, “native kinesin (kinesin-1, conventional kinesin) purified from bovine brain (complex)” gave an active fraction by microtubule pulldown (no CK2) of 20% and a percent of motor bound to microtubules (after CK2, 3:1 kinase:motor) of 80%.
